Measured values from patent publication US6500934.
Each block holds one binder with its values, some of them ahead of it. Non-standard residues stand in square brackets, D forms with d. No end group written: not given here. Ahx = NCCCCCC(=O)O; βAla = NCCC(=O)O

How the values were obtained:
[1] = molecular target: α-MSH receptor of wild type Xenopus laevis melanophores (Xenopus laevis); assay: cell-based or functional assay
[2] = molecular target: bombesin receptor expressed in transfected Xenopus laevis melanophores (plasmid pJG3.6BR); assay: cell-based or functional assay

EC50 (at t=30 min.) of pigment dispersion in wild type melanophores [1]: 72.5 nM
EC50 of pigment dispersion, fold lower than α-MSH monomer [1]: 5 fold
Binder: SYSMEHFRWGKPVGGG[Ahx]KKKKKKKKKKKKKKKKKKKKC[βAla] (ends and bridges not checked; also: disulfide-linked homodimer via Cys) [α-MSH dimer (disulfide-linked homodimer of …-GGG-εAhx-K(20)-C-βAla)]

EC50 (t=30 min) of pigment dispersion in melanophores transfected with the bombesin receptor [2]: 23.4 nM
EC50 of pigment dispersion, fold lower than bombesin monomer [2]: 5 fold
B1: Bombesin dimer (disulfide-linked homodimer of C-K(20)-εAhx-GGG-…) (peptide)
peptide: CKKKKKKKKKKKKKKKKKKKK[Ahx]GGGQQRLGNQWAVGHLM-NH2
modifications: ends and bridges not checked; also: disulfide-linked homodimer via N-terminal Cys

IC50 of inhibition of α-MSH (5 nM) mediated pigment dispersion in wild type melanophores [1]: 120 nM
Binder: MP[dF]R[dW]FKPVGGG[Ahx]KKKKKKKKKKKKKKKKKKKK[βAla] [α-MSH-ANT monomer (MPdFRdWFKPV-GGGεAhx-K(20)-βAla)]
